{
  "source": "patent US9616101B2",
  "about": "“Differentiation marker and differentiation control of eye cell” (Kyoto Prefectural Public University Corporation, priority 2012, dated 2017)",
  "system": "cultured monkey corneal endothelial cell",
  "test": "Cell density measurement (Konan KSS-400EB) after R-spondin 1 addition",
  "assay_type": "cell-based, cynomolgus monkey",
  "conditions": "10 ng/ml or 50 ng/ml R-spondin 1; 48 hours after addition",
  "method": "A cultured monkey corneal endothelial cell (Lot. 20111222-4 P2) was treated with 0.05% trypsin at 37° C. for 10 minutes, peeled from a T-25 flask, and suspended in a culture medium (10% FBS+bFGF/DMEM). The number of cells was counted, and the suspension was adjusted with a culture medium to 3×10^4 cells/300 μl. Cells were seeded on a Lab-TekII chamber Slide (8 well) coated with FNS, in 300 μl/well.\nAt 7 days after cell seeding, a medium was exchanged with a medium containing R-spondin 1 (0, 10, 50 ng/ml) in the state where cells were almost confluent, and at 24 hours after addition of R-spondin 1, Click-iT EdU was added so that the final concentration was 10 μM. (Although a manual of Kit recommended that a half of a medium was exchanged, a medium was not exchanged) After additional 24 hours (48 hours after addition of R-spondin 1), cells were fixed with 4% PFA/PBS, EdU was detected according to a manual of Kit, and the EdU-positive cell rate was counted (FIGS. 8 and 9).\nA chamber slide after staining was photographed with a phase contrast microscope, and the cell density was measured using the corneal endothelial cell density calculating software, Konan Storage System KSS-400EB (FIG. 10).",
  "data": [
    {"molecule": "R-spondin 1: Recombinant Human R-spondin 1 (R&D Cat. 4645-RS); ligand of GPR49/LGR5 (protein, listed as Homo sapiens) MRLGLCVVALVLSWTHLTISSRGIKGKRQRRISAEGSQACAKGCELCSEVNGCLKCSPKLFILLERNDIRQVGVCLPSCPPGYFDARNPDMNKCIKCKIEHCEACFSHNFCTKCKEGLYLHKGRCYPACPEGSSAANGTMECSSPAQCEMSEWSPWGPCSKKQQLCGFRRGSEERTRRVLHAPVGDHAACSDTKETRRCTVRRVPCPEGQKRRKGGQGRRENANRNLARKESKEAGAGSRRRKGQQQQQQQGTVGPLTSAGPA", "values": [
      {"measurement": "cell density as compared with a control", "value": 1.3, "unit": "times"}
    ]}
  ]
}
